The record followed here is patent US20080104734A1 (published 2008).

For this assay, the target named is SSPG1d peptide ([…]). Kind of assay: ELISA.

B1: polyhistidine tagged scFv-SSPG1d-peptide (scFv)
scFv: MDIVLTQSPAIMSASPGEKVTMTCSASSSVSYMHWYQQKSSTSPKLWIYDTSKLASGVPGRFSGSGSGNSYSLTISSMEAEDVATYYCFQGSGYPLTFGAGTKLEIKRGAGGSGGGGSGGGGSGGGGSQVQLQQSGAELVRPGSSVKISCKASGYAFSNYWMNWVKQRPGQGLEWIGQIYPGYGDAKYNGKFKGKATLTADISSSTAYMQLSSLTSEDSAVYFCARSSYEANWGQGTLVTVSALEHHHHHH
In the case of B1, binding was put at a Kd of 26.7 nM.

In general, Kd refers to the equilibrium constant for the complex coming apart. High values mean a looser complex, low ones a tighter complex.
